Data: PMC3958346, “Clearance Kinetics and Matrix Binding Partners of the Receptor for Advanced Glycation End Products” (PLoS ONE, 2014)
Where “and” joins values, the source holds several entries; their conditions need not be identical. Identical values can stand only once.

Experiments:
Experiment in all cases: BLI; ForteBIO Octet; purified mouse sRAGE conjugated to amine-reactive sensor tips, matrix protein in solution in varying concentrations; 1800 s association, dissociation in PBS; fit to the 1:1 Langmuir model; constants printed for each analyte concentration
Settings in all cases: both partners purified
Collagen I = Collagen I (Sigma product, species and catalogue number not printed (could be rat or bovine). Natural alpha1(I)2 alpha2(I) heterotrimer taken by convention, propeptides removed; hydroxyproline, hydroxylysine, gly)
Collagen IV = Collagen IV (Sigma product, species and catalogue number not printed (human placenta or mouse EHS are both likely). Common alpha1(IV)2 alpha2(IV) heterotrimer taken by convention, 7S domain kept; hydroxyproline, h)
Laminin = target: Laminin

B1: Mouse soluble RAGE (soluble receptor for advanced glycation end products) (natural protein, UniProt Q62151-1 22-330, looked up)
chain: GGQNITARIGEPLVLSCKGAPKKPPQQLEWKLNTGRTEAWKVLSPQGGPWDSVARILPNGSLLLPATGIVDEGTFRCRATNRRGKEVKSNYRVRVYQIPGKPEIVDPASELTASVPNKVGTCVSEGSYPAGTLSWHLDGKLLIPDGKETLVKEETRRHPETGLFTLRSELTVIPTQGGTHPTFSCSFSLGLPRRRPLNTAPIQLRVREPGPPEGIQLLVEPEGGIVAPGGTVTLTCAISAQPPPQVHWIKDGAPLPLAPSPVLLLPEVGHEDEGTYSCVATHPSHGPQESPPVSIRVTETGDEGPAEGS
notes: Mouse soluble RAGE, residues 22-330, signal peptide cleaved off; mass 35742.30 Da; mouse membrane RAGE has a published length of 402 (NP_031451.2); Native protein from tissue; Coupled to amine-reactive sensor tips in one orientation, in solution in the other; also called sRAGE; mouse sRAGE; source: endotoxin removed with Detoxi-Gel polymyxin B resin
Kd (Collagen I): 3.51 nM and 1.62 nM and 1.84 nM | Kd (Collagen IV): 2.57 nM and 3.59 nM and 4.81 nM | koff (Collagen IV): 6.26e-05 s⁻¹ and 7.72e-05 s⁻¹ and 8.1e-05 s⁻¹ | kon (Collagen IV): 24400 M⁻¹ s⁻¹ and 21500 M⁻¹ s⁻¹ and 16700 M⁻¹ s⁻¹ | koff (Laminin): 0.000191 s⁻¹ and 0.000102 s⁻¹ and 8.02e-05 s⁻¹ and 0.000108 s⁻¹ | kon (Laminin): 75400 M⁻¹ s⁻¹ and 106000 M⁻¹ s⁻¹ and 136000 M⁻¹ s⁻¹ and 171000 M⁻¹ s⁻¹
